How the values were obtained:
[1] = biological target: T1, cynomolgus 4-1BB/TNFRSF9-His (Macaca fascicularis, UniProt A9YYE7); assay: BLI; Octet Red96 (ForteBio); who was immobilised not stated; settings: both partners purified
T1 construct: cynomolgus 4-1BB (TNFRSF9), recombinant His-tagged protein from Acro; source: bought: Acro

human CD137-His = biological target: T2, human CD137-His (Homo sapiens, UniProt Q07011); assay: as above; settings: both partners purified
T2 construct: human 4-1BB (CD137, TNFRSF9), recombinant His-tagged protein from Acro; also called human 4-1BB; TNFRSF9; source: bought: Acro
T2 sequence (Q07011 24-186): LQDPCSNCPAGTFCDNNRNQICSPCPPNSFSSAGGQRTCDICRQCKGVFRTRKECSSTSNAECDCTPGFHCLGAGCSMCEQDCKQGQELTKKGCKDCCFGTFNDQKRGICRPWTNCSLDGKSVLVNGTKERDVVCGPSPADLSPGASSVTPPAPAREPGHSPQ

[2] = biological target: T3, cynomolgus 4-1BB expressed on CHO-K1 cells (Macaca fascicularis, UniProt A9YYE7); assay: flow cytometry on cells; CHO-K1 cells stably expressing human or cynomolgus 4-1BB incubated with serially diluted ATOR-1017; detected with goat anti-hIg Fc-PE; MFI; settings: one partner purified
T3 construct: cynomolgus 4-1BB (TNFRSF9) from a gene in pcDNA3.1 (GenScript); also called CHO-cy4-1BB; cy4-1BB-CHO; source: CHO-K1, stably transfected (pcDNA3.1), on cells

[3] = biological target: T4, human 4-1BB expressed on CHO-K1 cells (human, UniProt Q07011); assay: as above; settings: one partner purified
T4 construct: human 4-1BB (CD137, TNFRSF9) from a gene in pcDNA3.1 (GenScript); also called CHO-hu4-1BB; hu4-1BB-CHO; source: CHO-K1, stably transfected (pcDNA3.1), on cells
T4 sequence (Q07011 24-255): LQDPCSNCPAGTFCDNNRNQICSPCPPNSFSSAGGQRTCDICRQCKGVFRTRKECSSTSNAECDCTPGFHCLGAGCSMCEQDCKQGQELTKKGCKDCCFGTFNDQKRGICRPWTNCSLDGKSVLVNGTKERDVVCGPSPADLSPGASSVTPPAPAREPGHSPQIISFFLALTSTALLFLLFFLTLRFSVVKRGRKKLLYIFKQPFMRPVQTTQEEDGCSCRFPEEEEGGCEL

ATOR-1017 (evunzekibart) [4] = biological target: T5, ATOR-1017 (evunzekibart) (human); assay: BLI; Octet RED96; antibodies captured on FABG2 biosensor tips, recombinant Fcγ receptors in solution at suitable concentration ranges; association and dissociation at physiological pH; settings: both partners purified
T5 construct: as the VH of Wm14, which is in PDB 8OZ3 (amino acids 2-118 modelled); human IgG4 heavy chain constant region, S228P stabilised; as the VL of Wm14, which is in PDB 8OZ3 (amino acids 2-110 modelled); light chain constant region; IgG4 (S228P)

ATOR-1017 (evunzekibart) [5] = biological target: T5, ATOR-1017 (evunzekibart); assay: BLI; Octet RED96; antibodies captured on FABG2 biosensor tips, recombinant FcRn in solution; association studied at physiological pH, dissociation at pH6; settings: both partners purified

B1: ATOR-1017 (evunzekibart) (antibody, V domains shown)
VH: EVQLLESGGGLVQPGGSLRLSCAASGFNFGYSYMSWVRQAPGKGLEWVSSIGSTSSHTYYADSVKGRFTISRDNSKNTLYLQMNSLRAEDTAVYYCARVYSSPGIDYWGQGTLVTVSS
VL: DIQMTQSPSSLSASVGDRVTITCRASQSIGSTLNWYQQKPGKAPKLLIYGASSLQSGVPSRFSGSGSGTDFTLTISSLQPEDFATYYCQQYYTWVPFTFGQGTKLEIK
notes: the variable domains stand in the scFv of PDB 8OZ3 (heavy chain amino acids 2-118 modelled); human IgG4 constant part, S228P stabilized; the variable domains stand in the scFv of PDB 8OZ3 (light chain amino acids 2-110 modelled); light chain constant domain; IgG4 (S228P); variable domains from the human scFv library ALLIGATOR-GOLD, optimized
B1 showed a Kd [1] of 0.2 nM, a Kd (human CD137-His) of 0.1 nM and an EC50 [2] of 0.5 nM. It also gave an EC50 [3] of 0.5 nM.

B2: mouse FcγRIIb (receptor)
chain: THDLPKAVVKLEPPWIQVLKEDTVTLTCEGTHNPGNSSTQWFHNGRSIRSQVQASYTFKATVNDSGEYRCQMEQTRLSDPVDLGVISDWLLLQTPQLVFLEGETITLRCHSWRNKLLNRISFFHNEKSVRYHHYSSNFSIPKANHSHSGDYYCKGSLGRTLHQSKPVTITVQGPKSSRSLP
modifications: soluble ectodomain assumed for BLI
B2 gave a Kd (ATOR-1017 (evunzekibart) [4]) of 300 nM.

B3: mouse FcγRIII (receptor)
chain: ALPKAVVKLDPPWIQVLKEDMVTLMCEGTHNPGNSSTQWFHNGRSIRSQVQASYTFKATVNDSGEYRCQMEQTRLSDPVDLGVISDWLLLQTPQRVFLEGETITLRCHSWRNKLLNRISFFHNEKSVRYHHYKSNFSIPKANHSHSGDYYCKGSLGSTQHQSKPVTITVQDPATTSSISLVWYHT
modifications: soluble ectodomain assumed for BLI
With B3 the Kd (ATOR-1017 (evunzekibart) [4]) was 100 nM.

B4: mouse FcγRIV (receptor)
chain: GLQKAVVNLDPKWVRVLEEDSVTLRCQGTFSPEDNSIKWFHNESLIPHQDANYVIQSARVKDSGMYRCQTALSTISDPVQLEVHMGWLLLQTTKWLFQEGDPIHLRCHSWQNRPVRKVTYLQNGKGKKYFHENSELLIPKATHNDSGSYFCRGLIGHNNKSSASFRISLGDPGSPSMFPPWHQ
modifications: soluble ectodomain assumed for BLI
B4 gave a Kd (ATOR-1017 (evunzekibart) [4]) of 400 nM.

B5: mouse FcRn (receptor)
chain 1: SETRPPLMYHLTAVSNPSTGLPSFWATGWLGPQQYLTYNSLRQEADPCGAWMWENQVSWYWEKETTDLKSKEQLFLEALKTLEKILNGTYTLQGLLGCELASDNSSVPTAVFALNGEEFMKFNPRIGNWTGEWPETEIVANLWMKQPDAARKESEFLLNSCPERLLGHLERGRRNLEWKEPPSMRLKARPGNSGSSVLTCAAFSFYPPELKFRFLRNGLASGSGNCSTGPNGDGSFHAWSLLEVKRGDEHHYQCQVEHEGLAQPLTVDLDSSARSS
chain 2: IQKTPQIQVYSRHPPENGKPNILNCYVTQFHPPHIEIQMLKNGKKIPKVEMSDMSFSKDWSFYILAHTEFTPTETDTYACRVKHASMAEPKTVYWDRDM
modifications: soluble Fcgrt/B2m heterodimer assumed by convention; B2m not given
With B5 the Kd (ATOR-1017 (evunzekibart) [5]) was 200 nM.

Reference: publication PMC10700433 (Cancer Immunology, Immunotherapy : CII, 2023)
